Positions count from the first letter of the chain named.
B1: recombinant ClpP1 (rClpP1) of Leptospira interrogans, LIC11417 (enzyme)
chain: not shown
B2: recombinant ClpP2 (rClpP2) of Leptospira interrogans, LIC11951 (enzyme, UniProt Q72R01 1-197, looked up)
chain: MPETEKIAEVFEELTGSKISKNFLDHRKIFLWGPVTDESSKDLVGKLLYLEMKDPGKKITFYINSPGGVVTSGMTVFDTIKMISSPVHTVCMGMAASMGSVLLAAGTKGERSIWPNGKVMIHQPSIGGQIVAPATDLKIHAEEILKTKTKLNQILADACGHPISKLEEDTDRDYYMDAEEAIKYGIVDKLATKIDFN
B3: rClpP2S97A, catalytic serine mutant of recombinant ClpP2 of Leptospira interrogans (enzyme, UniProt Q72R01 1-197, looked up)
chain: B2 chain with S97A
B4: rClpP1S98A, catalytic serine mutant of recombinant ClpP1 of Leptospira interrogans (enzyme)
chain: not shown

Experiments:
[1] = molecular target: the molecule itself; assay: SEC
[2] = molecular target: the molecule itself; assay: native gel or EMSA
[3] = molecular target: the molecule itself; assay: cross-linking
[4] = molecular target: B2; assay: ITC
[5] = molecular target: B1; assay: ITC

Row | Binder | stoichiometry N [1] | stoichiometry N [2] | stoichiometry N [3] | dH [4] | stoichiometry N [4] | Kd [5] | binding result [2]
1 | B1 | 14 | 21 | 7 | -30200 ± 2640 cal^–1 mol^–1 | 0.945 ± 0.05 | – | –
2 | B2 | – | 14 | 7 | – | – | 2020 ± 100 nM | –
3 | B3 | – | – | – | – | – | – | binds
4 | B4 | – | – | – | – | – | – | binds

Reference: article PMC6682002 (ACS Omega, 2019)
